Experiments:
Assay in all cases: flow cytometry, cell-based binding assay: yeast-displayed scFv with biotinylated MOG protein, streptavidin detection, anti-myc co-staining
[1] = target: T1, biotinylated cynomolgus monkey MOG-FC protein (Q9BGS7), expressed in mammalian cells (cynomolgus monkey, UniProt Q9BGS7 30-154, limits assumed, biotinylated (site not stated))
T1 construct: also called cynomolgus MOG-Fc; 사이노몰거스 원숭이 MOG-FC; not shown: Fc part
T1 sequence (looked up): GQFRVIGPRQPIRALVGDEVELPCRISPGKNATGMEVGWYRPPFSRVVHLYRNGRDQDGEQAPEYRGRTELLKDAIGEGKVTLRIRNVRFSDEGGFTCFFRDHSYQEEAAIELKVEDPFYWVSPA

[2] = target: T2, biotinylated human MOG-His (Uniprot Q16653), RND Systems (human, UniProt Q16653 30-154, biotinylated (site not stated))
T2 construct: A bought protein (RND Systems); also called 인간 MOG-His; not shown: His tag
T2 sequence (looked up): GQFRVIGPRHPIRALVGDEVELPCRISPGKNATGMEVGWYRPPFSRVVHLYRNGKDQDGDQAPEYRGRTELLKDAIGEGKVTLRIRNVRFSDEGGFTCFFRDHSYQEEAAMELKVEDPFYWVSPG

[3] = target: T3, biotinylated mouse MOG-His (Uniprot Q61885), RND Systems (mouse, UniProt Q61885 29-156, limits assumed, biotinylated (site not stated))
T3 construct: A bought protein (RND Systems); also called 마우스 MOG-His; not shown: His tag
T3 sequence (looked up): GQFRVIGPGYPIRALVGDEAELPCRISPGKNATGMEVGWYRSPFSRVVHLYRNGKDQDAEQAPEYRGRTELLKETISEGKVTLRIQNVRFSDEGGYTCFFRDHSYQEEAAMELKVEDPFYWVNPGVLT

binding result [1]: binds
binding result [2]: binds
binding result [3]: binds
B1: anti-MOG scFv of the invention, displayed on yeast cells (MOG-CAR 발현 효모 세포) (scFv, V domains shown)
VH: QVQLVQSGAEVKKPGSSVKVSCKASGGTFSSYAFSWVRQAPGQGLEWMGRIVPVVGTPNYAQKFQGRVTITADESTSTAYMELSSLRSEDTAVYYCARERLYAGYYFDHWGQGTLVTVSS
VL: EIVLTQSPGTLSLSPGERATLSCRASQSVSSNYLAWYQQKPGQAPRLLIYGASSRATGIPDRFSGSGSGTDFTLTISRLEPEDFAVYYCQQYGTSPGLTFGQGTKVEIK
notes: also called MOG-CAR expressing yeast cells

From patent KR20240052776A (dated 2024)
